The results in this text go back to PMC13483453, “Ewing sarcoma breakpoint region 1 (EWSR1) protein binds to nonstructural protein 2 and non-coding regions of chikungunya virus genome to inhibit virus replication”.

Series [1] concerns the target Recombinant histidine-tagged EWSR1 (Ewing sarcoma breakpoint region 1 protein) (UniProt Q01844). Kind of series: BLI.
For series [2], the target named is T1, EWSR1 (UniProt Q01844 1-656). Kind of series: EMSA; polyIC. The following applies: protein: recombinant; tags: N-terminal 6xHis (pET28a).
T1 sequence (Q01844 whole entry): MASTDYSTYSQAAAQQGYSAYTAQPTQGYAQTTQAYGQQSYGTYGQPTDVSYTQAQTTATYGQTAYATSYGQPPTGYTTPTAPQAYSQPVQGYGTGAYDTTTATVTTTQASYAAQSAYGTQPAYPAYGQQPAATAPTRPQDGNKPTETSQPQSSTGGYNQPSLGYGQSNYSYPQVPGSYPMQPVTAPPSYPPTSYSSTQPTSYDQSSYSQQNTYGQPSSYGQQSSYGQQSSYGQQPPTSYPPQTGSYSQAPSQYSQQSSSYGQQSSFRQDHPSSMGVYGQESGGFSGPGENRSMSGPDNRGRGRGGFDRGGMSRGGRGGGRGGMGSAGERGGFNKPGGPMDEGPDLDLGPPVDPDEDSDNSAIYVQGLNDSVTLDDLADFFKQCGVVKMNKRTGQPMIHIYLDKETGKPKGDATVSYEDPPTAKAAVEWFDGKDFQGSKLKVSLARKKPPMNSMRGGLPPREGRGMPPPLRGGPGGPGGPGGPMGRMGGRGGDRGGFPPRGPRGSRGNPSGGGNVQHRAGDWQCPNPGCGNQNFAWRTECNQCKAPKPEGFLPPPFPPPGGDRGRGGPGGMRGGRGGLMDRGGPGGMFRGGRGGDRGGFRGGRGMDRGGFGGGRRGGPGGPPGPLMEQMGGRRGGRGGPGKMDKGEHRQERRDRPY
The target in series [3] is T2, CHIKV nsP2 (Chikungunya virus, UniProt Q8JUX6 536-1333). Kind of series: EMSA; polyIC. The following applies: protein: recombinant; tags: His6-SUMO removed.
In series [4] the target is T1, EWSR1. Kind of series: EMSA. The following applies: protein: recombinant; tags: N-terminal 6xHis (pET28a).
Series [5] addresses T2, CHIKV nsP2. Kind of series: EMSA. The following applies: protein: recombinant; tags: His6-SUMO removed.
For series [6], the target named is T2, CHIKV nsP2. Kind of series: EMSA; polyIC; figure description says weak. The following applies: protein: recombinant; tags: His6-SUMO removed.
For series [7], the target named is T1, EWSR1. Kind of series: BLI; 2:1 binding model. The following applies: protein: recombinant; tags: N-terminal 6xHis (pET28a).
The target of series [8] is T2, CHIKV nsP2. Kind of series: BLI; 2:1 binding model. The following applies: protein: recombinant; tags: His6-SUMO removed.

Recombinant histidine-tagged EWSR1 (Ewing sarcoma breakpoint region 1 protein), sequence (Q01844 whole entry): as above

Consider “Full-length CHIKV nsP2 protein (recombinant) (from UniProt Q8JUX6 536-1333) (enzyme)”, for which, in series [1], the Kd was determined as 716 nM.

B1: 14-mer of 3NCR48 (ssRNA)
RNA: GUUUUUAAUAUUUC
For the molecule B1, the binding result in series [2] and in series [3] was “binds” each time.

B2: Random48 (ssRNA)
RNA: GUGAUUCAGAGGUUUUUGACUUUAGUAAAUCGCCCAUCCUUUGAUAGA
Consider B2, for which the binding result in series [4] is “no binding”; in series [5] it was “binds”.

B3: 5NCR-RC50 (ssRNA)
RNA: UCUCUUGCUUUGCAGAGUAGAGCAGUAAGAAACUGGUAGGCUACGUGUGU
Turning to B3, the binding result in series [6] was “binds”. Also, the Kd in series [7] stood at 80.2 ± 0.39 nM.

B4: 3NCR48 (ssRNA)
RNA: UCCGAACCCACAGGGACGUAGGAGAUGUUAUUUUGUUUUUAAUAUUUC
Regarding B4, the Kd was 91.4 ± 0.37 nM in series [7] and 92.9 ± 1.6 nM in series [8].
